Here are results for two proteins from article PMC8449659, “Depolymerization of biorefinery lignin by improved laccases of the white‐rot fungus Obba rivulosa” (Microbial Biotechnology, 2021).

Substrate in this data set: COc1cccc(OC)c1O
In words: purified protein. The format is biochemical, Obba rivulosa. Conditions: O2 co-substrate, error is 95% confidence interval.

The mark [1] stands for this setting: pH 6.0, citrate phosphate buffer, 0-2 mM substrate.
Where [2] appears, read: pH 3.5, citrate phosphate buffer, 0-31 mM substrate.

B1: rOrLcc2-L497V (variant rOrLcc2-D206N) (Obba rivulosa; D227N/L518V) (protein)
chain: AIGPVTDLTITDVSISPDGFERAAVLAGGTFPGPLITGNIGDNFQINVVNQLSNETMLESTTIHWHGLFQKGTAWADGPAFVSQCPIATGNSFLYDFSVPDQAGTFWYHSHLATQYCDGLRGPLVVYDPNDAYLSDYDVDDDTTVITLADWYHTAATLGPRFPTQADATLINGLGRYSGGPESNLTVITVESGKRYRFRLVSISCNENYVFSIDDHEMIVIEADGVETQPVTVDSIQIFAAQRYSFILNATEAVDNYWIRATPDLGTTGFTDGINSAILRYVGANDTDPTTASNTTNLLSELDLHPLTNAAAPGAASQDPGSVDVSMNLELGFDGTNFTINGATFVPPTVPVLLQILSGAQSATDLLPSGSVFTLPSNSTVQVTLAAGTVAGGPHPFHLHGHTFSVVRSAGSDTYNYDNPVQRDTVSIGADGDNVTIRFDTNNPGPWFLHCHIDWHLNAGFAIVFAEDTADIASANPVPDSWSDLCPTYDALPSDEV
notes: codon-optimized cDNA in pPicZalphaA, C-terminal L497V to remove possible ER-retention signal SDEL, secreted from Pichia pastoris X-33, purified in two steps
With B1, under setting [1], the Michaelis constant (Km) (as a rule, the substrate concentration at which the rate is half of its maximum) came to 38 ± 0 µM; the maximal velocity (Vmax) (usually the rate approached at saturating substrate) worked out at 150 µM/min; the kcat (as a rule, the number of substrate molecules converted per active site and unit of time at saturation) was found to be 112 s⁻¹; the catalytic efficiency (kcat/Km) (usually the turnover number divided by the Michaelis constant) was found to be 2.95e+06 M⁻¹ s⁻¹.

B2: rOrLcc1 (variant rOrLcc1-D208N) (Obba rivulosa; D229N) (protein)
chain: AIGPVTDLVITDAFVTPDGPNLGREAVLAGGTFPGPLIQGNKGDNFQINVVNNLTNHTMLKTTSIHWHGLFQHGTNWADGPAFVNQCPIASGNSFLYNFNVPDQAGTFWYHSHLATQYCDGLRGPLVVYDPNDPYADLYDVDDESTVITLSDWYHAAASTLTFPTFDTTLINGLGRFAGTGGTDSDLAVITVEQGKRYRFRLAAISCNPNWVFSIDEHVMTIIEADAVNTLPLTVDAIQIFAAQRYSFVLNANQTVGNYWIRANPNNGNMGFANGINSAILRYSGATIEDPTTNSTIVNQLNEADLSPLTNPQAPGAPSQDPGAVDVAMNLAFSFNGTRLFINGVSFVPPSVPVLLQILSGSMTAQDLLPTGSVYTLPRNATVQISMPGNIIAGPHPFHLHGHTFSVIRSAGESDYNYDNPVQRDTVSIGGATDNVTIRFTTNNPGPWFLHCHIDWHLQAGFAIVFAEDTPDIASANPVPQAWSDLCPTYDALDPSDT
notes: codon-optimized cDNA in pPicZalphaA, secreted from Pichia pastoris X-33, purified in two steps
Turning to B2, under setting [2], the Km amounted to 3668 ± 270 µM, the Vmax stood at 216 µM/min, the kcat was found to be 44 s⁻¹ and the kcat/Km is 12000 M⁻¹ s⁻¹.
